Assay results published in FireProtDB (doi:10.1126/science.aai7825).

B1: Ribosome-recycling factor wild type, P0A805 (protein)
chain: MISDIRKDAEVRMDKCVEAFKTQISKIRTGRASPSLLDGIVVEYYGTPTPLRQLASVTVEDSRTLKINVFDRSMSPAVEKAIMASDLGLNPNSAGSDIRVPLPPLTEERRKDLTKIVRGEAEQARVAVRNVRRDANDKVKALLKDKEISEDDDRRSQDDVQKLTDAAIKKIEAALADKEAELMQF
B2: Ribosomal protein uL3 glutamine methyltransferase wild type, P39199 (protein)
chain: MDKIFVDEAVNELQTIQDMLRWSVSRFSAANIWYGHGTDNPWDEAVQLVLPSLYLPLDIPEDMRTARLTSSEKHRIVERVIRRVNERIPVAYLTNKAWFCGHEFYVDERVLVPRSPIGELINNKFAGLISKQPQHILDMCTGSGCIAIACAYAFPDAEVDAVDISPDALAVAEQNIEEHGLIHNVIPIRSDLFRDLPKVQYDLIVTNPPYVDAEDMSDLPNEYRHEPELGLASGTDGLKLTRRILGNAADYLADDGVLICEVGNSMVHLMEQYPDVPFTWLEFDNGGDGVFMLTKEQLIAAREHFAIYKD
B3: Multidrug efflux pump subunit AcrA wild type, P0AE06 (protein)
chain: MNKNRGFTPLAVVLMLSGSLALTGCDDKQAQQGGQQMPAVGVVTVKTEPLQITTELPGRTSAYRIAEVRPQVSGIILKRNFKEGSDIEAGVSLYQIDPATYQATYDSAKGDLAKAQAAANIAQLTVNRYQKLLGTQYISKQEYDQALADAQQANAAVTAAKAAVETARINLAYTKVTSPISGRIGKSNVTEGALVQNGQATALATVQQLDPIYVDVTQSSNDFLRLKQELANGTLKQENGKAKVSLITSDGIKFPQDGTLEFSDVTVDQTTGSITLRAIFPNPDHTLLPGMFVRARLEEGLNPNAILVPQQGVTRTPRGDATVLVVGADDKVETRPIVASQAIGDKWLVTEGLKAGDRVVISGLQKVRPGVQVKAQEVTADNNQQAASGAQPEQSKS
B4: NADPH-dependent 7-cyano-7-deazaguanine reductase wild type, Q46920 (protein)
chain: MSSYANHQALAGLTLGKSTDYRDTYDASLLQGVPRSLNRDPLGLKADNLPFHGTDIWTLYELSWLNAKGLPQVAVGHVELDYTSVNLIESKSFKLYLNSFNQTRFNNWDEVRQTLERDLSTCAQGKISVALYRLDELEGQPIGHFNGTCIDDQDITIDNYEFTTDYLENATCGEKVVEETLVSHLLKSNCLITHQPDWGSLQIQYRGRQIDREKLLRYLVSFRHHNEFHEQCVERIFNDLLRFCQPEKLSVYARYTRRGGLDINPWRSNSDFVPSTTRLVRQ
B5: Enoyl-[acyl-carrier-protein] reductase [NADH] FabI wild type, P0AEK4 (protein)
chain: MGFLSGKRILVTGVASKLSIAYGIAQAMHREGAELAFTYQNDKLKGRVEEFAAQLGSDIVLQCDVAEDASIDTMFAELGKVWPKFDGFVHSIGFAPGDQLDGDYVNAVTREGFKIAHDISSYSFVAMAKACRSMLNPGSALLTLSYLGAERAIPNYNVMGLAKASLEANVRYMANAMGPEGVRVNAISAGPIRTLAASGIKDFRKMLAHCEAVTPIRRTVTIEDVGNSAAFLCSDLSAGISGEVVHVDGGFSIAAMNELELK
B6: Transcriptional regulatory protein PhoP wild type, P23836 (protein)
chain: MRVLVVEDNALLRHHLKVQIQDAGHQVDDAEDAKEADYYLNEHIPDIAIVDLGLPDEDGLSLIRRWRSNDVSLPILVLTARESWQDKVEVLSAGADDYVTKPFHIEEVMARMQALMRRNSGLASQVISLPPFQVDLSRRELSINDEVIKLTAFEYTIMETLIRNNGKVVSKDSLMLQLYPDAELRESHTIDVLMGRLRKKIQAQYPQEVITTVRGQGYLFELR
B7: tRNA pseudouridine synthase D wild type, Q57261 (protein)
chain: MIEFDNLTYLHGKPQGTGLLKANPEDFVVVEDLGFEPDGEGEHILVRILKNGCNTRFVADALAKFLKIHAREVSFAGQKDKHAVTEQWLCARVPGKEMPDLSAFQLEGCQVLEYARHKRKLRLGALKGNAFTLVLREVSNRDDVEQRLIDICVKGVPNYFGAQRFGIGGSNLQGAQRWAQTNTPVRDRNKRSFWLSAARSALFNQIVAERLKKADVNQVVDGDALQLAGRGSWFVATTEELAELQRRVNDKELMITAALPGSGEWGTQREALAFEQAAVAAETELQALLVREKVEAARRAMLLYPQQLSWNWWDDVTVEIRFWLPAGSFATSVVRELINTTGDYAHIAE
B8: Uncharacterized protein YjaG wild type, P32680 (protein)
chain: MLQNPIHLRLERLESWQHVTFMACLCERMYPNYAMFCQQTGFGDGQIYRRILDLIWETLTVKDAKVNFDSQLEKFEEAIPSADDFDLYGVYPAIDACVALSELVHSRLSGETLEHAVEVSKTSITTVAMLEMTQAGREMSDEELKENPAVEQEWDIQWEIFRLLAECEERDIELIKGLRADLREAGESNIGIIFQQ
B9: Zinc chaperone YeiR wild type, P33030 (protein)
chain: MTRTNLITGFLGSGKTTSILHLLAHKDPNEKWAVLVNEFGEVGIDGALLADSGALLKEIPGGCMCCVNGLPMQVGLNTLLRQGKPDRLLIEPTGLGHPKQILDLLTAPVYEPWIDLRATLCILDPRLLLDEKSASNENFRDQLAAADIIVANKSDRTTPESEQALQRWWQQNGGDRQLIHSEHGKVDGHLLDLPRRNLAELPASAAHSHQHVVKKGLAALSLPEHQRWRRSLNSGQGYQACGWIFDADTVFDTIGILEWARLAPVERVKGVLRIPEGLVRINRQGDDLHIETQNVAPPDSRIELISSSEADWNALQSALLKLRLATTA
B10: NH(3)-dependent NAD(+) synthetase wild type, P18843 (protein)
chain: MTLQQQIIKALGAKPQINAEEEIRRSVDFLKSYLQTYPFIKSLVLGISGGQDSTLAGKLCQMAINELRLETGNESLQFIAVRLPYGVQADEQDCQDAIAFIQPDRVLTVNIKGAVLASEQALREAGIELSDFVRGNEKARERMKAQYSIAGMTSGVVVGTDHAAEAITGFFTKYGDGGTDINPLYRLNKRQGKQLLAALACPEHLYKKAPTADLEDDRPSLPDEVALGVTYDNIDDYLEGKNVPQQVARTIENWYLKTEHKRRPPITVFDDFWKK
B11: Acyl-CoA thioester hydrolase YciA wild type, P0A8Z0 (protein)
chain: MSTTHNVPQGDLVLRTLAMPADTNANGDIFGGWLMSQMDIGGAILAKEIAHGRVVTVRVEGMTFLRPVAVGDVVCCYARCVQKGTTSVSINIEVWVKKVASEPIGQRYKATEALFKYVAVDPEGKPRALPVE
B12: Nicotinate phosphoribosyltransferase wild type, P18133 (protein)
chain: MTQFASPVLHSLLDTDAYKLHMQQAVFHHYYDVHVAAEFRCRGDDLLGIYADAIREQVQAMQHLRLQDDEYQWLSALPFFKADYLNWLREFRFNPEQVTVSNDNGKLDIRLSGPWREVILWEVPLLAVISEMVHRYRSPQADVAQALDTLESKLVDFSALTAGLDMSRFHLMDFGTRRRFSREVQETIVKRLQQESWFVGTSNYDLARRLSLTPMGTQAHEWFQAHQQISPDLANSQRAALAAWLEEYPDQLGIALTDCITMDAFLRDFGVEFASRYQGLRHDSGDPVEWGEKAIAHYEKLGIDPQSKTLVFSDNLDLRKAVELYRHFSSRVQLSFGIGTRLTCDIPQVKPLNIVIKLVECNGKPVAKLSDSPGKTICHDKAFVRALRKAFDLPHIKKAS
B13: HTH-type transcriptional repressor PurR wild type, P0ACP7 (protein)
chain: MATIKDVAKRANVSTTTVSHVINKTRFVAEETRNAVWAAIKELHYSPSAVARSLKVNHTKSIGLLATSSEAAYFAEIIEAVEKNCFQKGYTLILGNAWNNLEKQRAYLSMMAQKRVDGLLVMCSEYPEPLLAMLEEYRHIPMVVMDWGEAKADFTDAVIDNAFEGGYMAGRYLIERGHREIGVIPGPLERNTGAGRLAGFMKAMEEAMIKVPESWIVQGDFEPESGYRAMQQILSQPHRPTAVFCGGDIMAMGALCAADEMGLRVPQDVSLIGYDNVRNARYFTPALTTIHQPKDSLGETAFNMLLDRIVNKREEPQSIEVHPRLIERRSVADGPFRDYRR
B14: Acetylornithine deacetylase wild type, P23908 (protein)
chain: MKNKLPPFIEIYRALIATPSISATEEALDQSNADLITLLADWFKDLGFNVEVQPVPGTRNKFNMLASIGQGAGGLLLAGHTDTVPFDDGRWTRDPFTLTEHDGKLYGLGTADMKGFFAFILDALRDVDVTKLKKPLYILATADEETSMAGARYFAETTALRPDCAIIGEPTSLQPVRAHKGHISNAIRIQGQSGHSSDPARGVNAIELMHDAIGHILQLRDNLKERYHYEAFTVPYPTLNLGHIHGGDASNRICACCELHMDIRPLPGMTLNELNGLLNDALAPVSERWPGRLTVDELHPPIPGYECPPNHQLVEVVEKLLGAKTEVVNYCTEAPFIQTLCPTLVLGPGSINQAHQPDEYLETRFIKPTRELITQVIHHFCWH
B15: Pyruvate formate-lyase 1-activating enzyme wild type, P0A9N4 (protein)
chain: MSVIGRIHSFESCGTVDGPGIRFITFFQGCLMRCLYCHNRDTWDTHGGKEVTVEDLMKEVVTYRHFMNASGGGVTASGGEAILQAEFVRDWFRACKKEGIHTCLDTNGFVRRYDPVIDELLEVTDLVMLDLKQMNDEIHQNLVGVSNHRTLEFAKYLANKNVKVWIRYVVVPGWSDDDDSAHRLGEFTRDMGNVEKIELLPYHELGKHKWVAMGEEYKLDGVKPPKKETMERVKGILEQYGHKVMF
B16: Homoserine O-succinyltransferase wild type, P07623 (protein)
chain: MPIRVPDELPAVNFLREENVFVMTTSRASGQEIRPLKVLILNLMPKKIETENQFLRLLSNSPLQVDIQLLRIDSRESRNTPAEHLNNFYCNFEDIQDQNFDGLIVTGAPLGLVEFNDVAYWPQIKQVLEWSKDHVTSTLFVCWAVQAALNILYGIPKQTRTEKLSGVYEHHILHPHALLTRGFDDSFLAPHSRYADFPAALIRDYTDLEILAETEEGDAYLFASKDKRIAFVTGHPEYDAQTLAQEFFRDVEAGLDPDVPYNYFPHNDPQNTPRASWRSHGNLLFTNWLNYYVYQITPYDLRHMNPTLD
B17: Transcriptional repressor MprA wild type, P0ACR9 (protein)
chain: MDSSFTPIEQMLKFRASRHEDFPYQEILLTRLCMHMQSKLLENRNKMLKAQGINETLFMALITLESQENHSIQPSELSCALGSSRTNATRIADELEKRGWIERRESDNDRRCLHLQLTEKGHEFLREVLPPQHNCLHQLWSALSTTEKDQLEQITRKLLSRLDQMEQDGVVLEAMS

Details: Escherichia coli (strain K12); pH 7.5; Thermal; Intensity; HEPES 20mM; transition: 2; whole UniProt chain shown

| Protein | Tm |
| --- | --- |
| B1 | 44.4 °C |
| B2 | 45.5 °C |
| B3 | 45.7 °C |
| B4 | 43.9 °C |
| B5 | 45.3 °C |
| B6 | 42.6 °C |
| B7 | 43.8 °C |
| B8 | 46.1 °C |
| B9 | 46.2 °C |
| B10 | 45.1 °C |
| B11 | 46.3 °C |
| B12 | 45.7 °C |
| B13 | 45.6 °C |
| B14 | 45.9 °C |
| B15 | 43.4 °C |
| B16 | 45.7 °C |
| B17 | 45.9 °C |
